The source of these data is PMC6995776 (Journal of molecular biology, 2019).

What all share (experiment): ITC
A general note: Isothermal titration calorimetry measures the heat released or taken up as one component is titrated into another.

Assay [1] deals with TbPRMT1 ENZ-Δ45PRO complex (Trypanosoma brucei, UniProt Q4GYA9 1-345).
Assay [2] concerns the target TbPRMT1 ENZ-Δ31PRO complex (Trypanosoma brucei, UniProt Q4GYA9 1-345).
For assay [3], the target named is TbPRMT1 ENZ-Δ21PRO complex (Trypanosoma brucei, UniProt Q4GYA9 1-345).
Assay [4] concerns the target T1, TbPRMT1 ENZ-PRO complex (wild type) (Trypanosoma brucei, UniProt Q4GYA9 1-345).
Assay [5] has as its target T1, TbPRMT1 ENZ-PRO complex (wild type). The source holds these as a separate data set.

B1: Maltose Binding Protein (MBP)-fused TbRGG1 (natural protein)
chain: MVCSTICLFQRGQWGNEGSRGDQRNYDNRGGRGEWGDRGGQRGDNQRDYGDQRNYDNRGGRGEWGDRGGQRGDNQRDYGDQRNYDNRGGRGEWGDRGGQRGDNQRDYGDQRNYDNRGGRGEWGDRGGQRGDNQRDYGDQRNYDNRGGRGEWGDRGGQRGDNQRDYGDQRNYDNRGGRGEWGDRGGQRGDNQRNYDNRGGRGEWGDRGGQRGGNQRDNSNQFGYRNERDGGIGRQRSARDNFGAHDNRASDERGSTDPAVGEVFDEQAAKILYELKRRFKSSKTGKERRDVQREARRIVRRARVDPSTQDEKSVTLLLNCAATFRCYPHTEGIKQATEWMRKNIDGLSPQNVALFTNAIGALSVVDSDTILINEISPAVEACYGQMNPVELVMTLQAFQRGRITENEDLQVSLLQQLVTCVPQMPAPQLSTLAGVLVDTPLRKRDEATWQEIAKTVVSKAASGAENMHSREVITLLKATPRLGVPEDHSFHLVDRAIATVGFHTDEQIGELLEAVSYYRDPQKTCGRELNEKLDKLVDALWARLQKVAPFADAASVTTIMRAAHRSGVDVPRDIVSTLVQAVMRELRYHRFTFRRVASLSEALALQKVPAKELLVMLGDYCIGKRPPREERGENTPVDDHNSGIEERMDIYARFLGDLTKARIALENAHSSNAGNGEPGSSVSQILAQRLEDSVGSAPPRELLKSVRAICTAADDCPFRNRANDGKIIALSEQRIAKEGASFMEGVRKTTMENFLSAVSGIPQAQKVVEVLSHQTR
B1: the equilibrium dissociation constant (Kd) in assay [1] came to 160 µM; in assay [2], 86 µM; in assay [3] it was 36 µM; in assay [4], 9 µM. In assay [5], the “stoichiometry N” value came out at 1.

A word on the Kd: it is a measure of binding affinity in units of concentration. A high value points to weaker binding. For orientation: stoichiometry N means the number of molecules, sites or subunits per partner or assembly.
